Measurements taken from US20170137467A1 (CHROMOTEK, published 2017).

T1: BC2T Q12A
T1 construct: positional scanning library member
T1 peptide: Ac-PDRKAAVSHWQA-NH2

T2: BC2T S8G
T2 construct: positional scanning library member
T2 peptide: Ac-PDRKAAVGHWQQ-NH2

T3: BC2T H9G
T3 construct: positional scanning library member
T3 peptide: Ac-PDRKAAVSGWQQ-NH2

T4: BC2T Q12G
T4 construct: positional scanning library member
T4 peptide: Ac-PDRKAAVSHWQG-NH2

T5: BC2T Q11V
T5 construct: positional scanning library member
T5 peptide: Ac-PDRKAAVSHWVQ-NH2

T6: BC2T S8M
T6 construct: positional scanning library member
T6 peptide: Ac-PDRKAAVMHWQQ-NH2

T7: BC2T W10M
T7 construct: positional scanning library member
T7 peptide: Ac-PDRKAAVSHMQQ-NH2

T8: BC2T H9P
T8 construct: positional scanning library member
T8 peptide: Ac-PDRKAAVSPWQQ-NH2

T9: BC2T Q12P
T9 construct: positional scanning library member
T9 peptide: Ac-PDRKAAVSHWQP-NH2

T10: BC2T S8F
T10 construct: positional scanning library member
T10 peptide: Ac-PDRKAAVFHWQQ-NH2

T11: BC2T S8W
T11 construct: positional scanning library member
T11 peptide: Ac-PDRKAAVWHWQQ-NH2

T12: BC2T Q12W
T12 construct: positional scanning library member
T12 peptide: Ac-PDRKAAVSHWQW-NH2

T13: BC2T W10T
T13 construct: positional scanning library member
T13 peptide: Ac-PDRKAAVSHTQQ-NH2

T14: BC2T Q12T
T14 construct: positional scanning library member
T14 peptide: Ac-PDRKAAVSHWQT-NH2

T15: BC2T H9K
T15 construct: positional scanning library member
T15 peptide: Ac-PDRKAAVSKWQQ-NH2

T16: BC2T Q12K
T16 construct: positional scanning library member
T16 peptide: Ac-PDRKAAVSHWQK-NH2

T17: BC2T W10H
T17 construct: positional scanning library member
T17 peptide: Ac-PDRKAAVSHHQQ-NH2


Columns and labels:
Assay in all cases: positional peptide library pulldown on immobilised Nb, LC-MS of supernatant; signal ratio to control GFP-Nb (1 = not captured, near 0 = captured)
[1] = biological target: T1, BC2T Q12A
Excerpt: (§1) In total, 12 different BC2T libraries displaying all 20 proteinogenic amino acids in one single position of the peptide were used in immunoprecipitation experiments. […] The direct comparison with the GFP-Nb made it possible to determine the quantitative degree of peptide capture without the need of labeled standards. […] The more peptide was captured the more the value approximates 0. It was not possible to discriminate between isoleucine (I) and leucine (L) peptide versions since these peptides are isobaric.
(§2) To investigate the binding specificity of the BC2T and derived mutants peptide libraries for each amino acid position of the sequence […] (SEQ ID NO:4) were synthesized with acetyl and amide groups located at the N-termini or C-termini respectively (Intavis). […] Incubations were performed in 300 μl PBS/0.01% CHAPS for 1 h on a HulaMixer (Life Technologies). Subsequent to a centrifugation step 10 μl supernatant were analyzed in a LC-MS procedure. Peptides were separated using an UltiMate3000 RSLCnano System (Thermo Scientific), composed of a C18 PepMap100μ-Precolumn (300 μm×5 mm; particle size: 5 μm; pore size: 100 Å—Thermo Scientific) and a C18 analytical column (Acclaim Rapid Separation LC (RSLC) Column: 150 mm×5 mm; particle size: 2.2 μm; pore size: 100 Å—Thermo Scientific). A step gradient was applied starting at 8% and ending after 20 min at 30% eluent B (80% acetonitrile, 20% H₂O, 0.1% formic acid).

[2] = biological target: T2, BC2T S8G
Excerpt: as §1, §2

[3] = biological target: T3, BC2T H9G
Excerpt: as §1, §2

[4] = biological target: T4, BC2T Q12G
Excerpt: as §1, §2

[5] = biological target: T5, BC2T Q11V
Excerpt: as §1, §2

[6] = biological target: T18, BC2T S8(I/L1) (N-terminal acetyl; C-terminal amide)
T18 construct: positional scanning library member; I or L not resolved
Excerpt: as §1, §2

[7] = biological target: T19, BC2T W10(I/L1) (N-terminal acetyl; C-terminal amide)
T19 construct: positional scanning library member; I or L not resolved
Excerpt: as §1, §2

[8] = biological target: T20, BC2T S8(I/L2) (N-terminal acetyl; C-terminal amide)
T20 construct: positional scanning library member; I or L not resolved
Excerpt: as §1, §2

[9] = biological target: T21, BC2T W10(I/L2) (N-terminal acetyl; C-terminal amide)
T21 construct: positional scanning library member; I or L not resolved
Excerpt: as §1, §2

[10] = biological target: T6, BC2T S8M
Excerpt: as §1, §2

[11] = biological target: T7, BC2T W10M
Excerpt: as §1, §2

[12] = biological target: T8, BC2T H9P
Excerpt: as §1, §2

[13] = biological target: T9, BC2T Q12P
Excerpt: as §1, §2

[14] = biological target: T10, BC2T S8F
Excerpt: as §1, §2

[15] = biological target: T11, BC2T S8W
Excerpt: as §1, §2

[16] = biological target: T12, BC2T Q12W
Excerpt: as §1, §2

[17] = biological target: T13, BC2T W10T
Excerpt: as §1, §2

[18] = biological target: T14, BC2T Q12T
Excerpt: as §1, §2

[19] = biological target: T15, BC2T H9K
Excerpt: as §1, §2

[20] = biological target: T16, BC2T Q12K
Excerpt: as §1, §2

[21] = biological target: T17, BC2T W10H
Excerpt: as §1, §2

Binder	ratio [1]	ratio [2]	ratio [3]	ratio [4]	ratio [5]	ratio [6]	ratio [7]	ratio [8]	ratio [9]	ratio [10]	ratio [11]	ratio [12]	ratio [13]	ratio [14]	ratio [15]	ratio [16]	ratio [17]	ratio [18]	ratio [19]	ratio [20]	further results
BC2 nanobody (VHH, immobilised on beads in this assay; also called BC2-Nb; BC2 nanotrap (immobilised)) VHH: QVQLVESGGGLVQPGGSLTLSCTASGFTLDHYDIGWFRQAPGKEREGVSCINNSDDDTYYADSVKGRFTIFMDNAKDTVYLQMNSLKPEDTAIYYCAEARGCKRGRYEYDFWGQGTQVTVSS	0.1	0.5	0.4	0.2	0.1	0.4	1	0.7	1	0.6	1	0.8	0.1	0.7	0.6	0.1	1	0.1	0.2	0	ratio [21]: 1
BC2-NbR106S (VHH, headlock mutant of BC2-Nb; immobilised on beads in this assay) VHH: QVQLVESGGGLVQPGGSLTLSCTASGFTLDHYDIGWFRQAPGKEREGVSCINNSDDDTYYADSVKGRFTIFMDNAKDTVYLQMNSLKPEDTAIYYCAEARGCKRGSYEYDFWGQGTQVTVSS	0.3	0.9	0.8	0.4	0.2	0.6	1.1	0.9	1.1	1	1.1	1	0.2	0.9	0.9	0.3	1	0.3	0.3	0.1	ratio [21]: 1.1
